# Entries after “also recorded” stand apart in the source; their conditions may differ.
# B1: EGFL6: recombinant EGFL6-flag protein from transfected HEK293 cells, used purified or as 72 hr supernatant (protein)
# chain: NAASARHHGLLASARQPGVCHYGTKLACCYGWRRNSKGVCEATCEPGCKFGECVGPNKCRCFPGYTGKTCSQDVNECGMKPRPCQHRCVNTHGSYKCFCLSGHMLMPDATCVNSRTCAMINCQYSCEDTEEGPQCLCPSSGLRLAPNGRDCLDIDECASGKVICPYNRRCVNTFGSYYCKCHIGFELQYISGRYDCIDINECTMDSHTCSHHANCFNTQGSFKCKCKQGYKGNGLRCSAIPENSVKEVLRAPGTIKDRIKKLLAHKNSMKKKAKIKNVTPEPTRTPTPKVNLQPFNYEEIVSRGGNSHGGKKGNEEKMKEGLEDEKREEKALKNDIEERSLRGDVFFPKVNEAGEFGLILVQRKALTSKLEHKDLNISVDCSFNHGICDWKQDREDDFDWNPADRDNAIGFYMAVPALAGHKKDIGRLKLLLPDLQPQSNFCLLFDYRLAGDKVGKLRVFVKNSNNALAWEKTTSEDEKWKTGKIQLYQGTDATKSIIFEAERGKGKTGEIAVDGVLLVSGLCPDSLLSVDD
# What was measured:
# Assay type in all cases: cell-based
# [1] = test system: Human ovarian cancer ascites cells; assay: Tumor sphere assay, ALDH+ cell percentages; conditions: EGFL6 treatment
# Excerpt: (§1) It has been shown that aldehyde dehydrogenase enzymatic activity (ALDH) is an excellent marker of ovarian CSCs in SKOV3 cells and primary patient samples (see, e.g., Silva, I. A., et al. Cancer Res (2011); Landen, C. N., Jr., et al. Mol Cancer Ther 9, 3186-3199 (2010); Steg, A. D., et al. Clin Cancer Res 18, 869-881 (2012); Kryczek, I., et al. Int J Cancer 130, 29-39 (2012); Deng, S., et al. PLoS ONE 5, e10277 (2010)). The impact of EGFL6 treatment on the percentage of ALDH^+ CSCs in vitro was next assessed. […] However, given the increase in total cell numbers, the absolute ALDH^+ CSC number remained unchanged (FIG. 3Aiii). […] Human ovarian cancer ascites cells were also treated with EGFL6 in a tumor sphere assay. Once again, treatment with EGLF6 was associated with a reduction in ALDH^+ cell percentages in tumor spheres (FIG. 3B).
# Sphere culture was performed as previously described (see, e.g., Silva, I. A., et al. Cancer Res (2011)). Briefly, single cell suspensions were plated in triplicate in ultra-low attachment plates (Corning, Acton, Mass., USA) in serum-free MEBM-2 (Lonza). Cells were plated at the indicated density and from 1,000-10,000 cells/ml in subsequent passage. Sphere formation was assessed 2 weeks after seeding cells.
# [2] = test system: ALDH+ CSCs in SKOV3 cells; assay: ALDH+ cell percentage and number (ALDEFLUOR FACS)
# Excerpt: as §1
# (§2) SKOV3, A2008, and A2780 were maintained in RPMI-1640, supplemented with 10% FBS with 1% Penicillin/Streptomycin, and cultured in humidified atmosphere of 5% CO2 at 37° C. For all in vitro cell culture experiments, isolated cells were allow to recover overnight following FACS, prior to treatment. Infantile Hemangioma Stem cells were maintained in EBM-2 medium with growth factor supplement cocktails in culture plates coated with fibronectin. For Echistatin and EGFL6 treatment, cells were pretreated with Echistatin (Sigma, 100 nM) for 24 hours prior to EGFL6 treatment. All transfections were performed using FuGene6 reagent (Promega) per company protocol.
# FACS assay was performed as previously described (see, e.g., Silva, I. A., et al. Cancer Res (2011)). Briefly, SKOV3 cells or primary ovarian tumor/ascetics cells were stained for ALDH using ALDEFLUOR kit per company protocol (Stem Cell Technologies). DAPI staining was used to exclude non-viable cells. For FACS cell sorting, equal number of ALDH and ALDH^(−) cells were collected for subsequent experiments.
# EGFL6 monoclonal antibody producing hybridoma cells were maintained in RPMI medium supplemented with 10% FBS. For antibody purification, the cells were cultured in reduced FBS (5%). […]
# ALDH+ and ALDH− cells = assay: Microfluidics device migration of individual cells in an EGFL6 gradient
# Excerpt: EGF factors have been reported to enhance the migration and invasion of various cell populations. The impact of EGFL6 on cellular migration was therefore assessed. […] Finally, a novel microfluidics device was used to determine the impact of EGFL6 on the migration of individual cells. To more specifically assess the impact on ovarian CSC versus progenitors, ALDH+ and ALDH− cells were sorted and loaded into individual channels of a microfluidics device in which migration could be directly monitored. EGFL6 was added to a reservoir at one side of the device to create a gradient of expression. EGFL6 had no impact on the migration of ALDH(−) cells.
# [3] = test system: phosphorylation of SHP2, ERK, FAK and SRC in SKOV3 cells; assay: Western blot of EGFL6 mediated signal activation
# Description: Lastly, EGFL6 mediated signal activation was evaluated. Integrin signaling has been reported to induce the […] of FAK, SRC and SHP2 among others. […] Phosphorylation of all of these proteins could be blocked with Echistatin.
# Cellular signaling changes associated with EGFL6 was next examined. […] EGFL6 treatment was associated with increased p-SHP2 levels specifically in ALDH^+ cells (FIG. 4Ei). […] SHP2 phosphorylation could be blocked with Echistatin (FIG. 4Eiii) or an EGFL6-blocking antibody. SHP2 phosphorylation was associated with increased p-ERK levels (4Ei-iii).
# as §2
# EGFL6 monoclonal antibody producing hybridoma cells were maintained in RPMI medium supplemented with 10% FBS. For antibody purification, the cells were cultured in reduced FBS (5%). Culture supernatant was collected and cell debris was removed by centrifugation. EGFL6 antibody was pulled down using Protein G Agarose heeds, Fast Flow (Millipore), washed and eluded with 50 mM glycine PH.2.7. Antibody solution was immediately neutralized to PH 7.2-7.4 with Tris (Ph 9.0, final concentration 25 mM). NaCl was added to final concentration of 150 mM. EGFL6 antibody was applied at 5 μg/ml for in vitro cell treatment and 50 μg/mouse for in vivo treatment.
# SKOV3 cells = assay: Cell cycle analysis (propidium iodine, FACS); conditions: EGFL6 treatment 24 hrs after serum starvation
# Description: SKOV3 cells were seeded at 5×10^5 in 6 cm culture plates, synchronized by serum starvation for 24 hrs, then treated with EGFL6 or control for 24 hrs. Cells were fixed with ice-cold alcohol, washed with PBS, and stained with propidium iodine ([…]) and RNase A (100 ug/ml) in PBS for 1 hr at 30° C. Cell cycle profile was acquired by FACS analysis and data were analyzed by Flowjo.
molecule,measurement,setting,value
B1,ALDH+ cell percentages in tumor spheres,[1],reduction
same,percentages of ALDH+ CSCs,[2]; EGFL6 treatment,decreasing percentages; also recorded: reduced
same,absolute ALDH+ CSC number,[2]; increasing concentrations of EGFL6,unchanged
same,migration of ALDH(−) cells,ALDH+ and ALDH− cells,no impact
same,migration of ALDH+ cells,ALDH+ and ALDH− cells,robust migration
same,p-FAK levels,[3]; EGFL6 treated SKOV3 cells,modest increase
same,p-SRC levels,[3]; EGFL6 treated SKOV3 cells,modest increase
same,p-SHP2 levels,[3]; treatment of ALDH+ SKOV3 cells,further increase; also recorded: increased
same,p-ERK levels,[3]; treatment of ALDH+ and ALDH(−) cells,increase p-ERK
same,decrease in the number of cells in G1 phase,SKOV3 cells,~20%
same,number of cells in S and G2/M phases,SKOV3 cells,concomitant increase
